Assay results published in the supplement of paper PMC12042874.
± gives the uncertainty stated by the source.

Test: amyloid nucleation score (Sup35N fusion, yeast selection) (log enrichment); library NNK3; higher = more nucleation; inactive = no reads after selection
Method in brief: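 Output and input plasmid inserts were sequenced by Illumina after psi-negative yeast carrying Sup35N fused to peptides of 20 random codons had been induced 24 hours with 100 μM copper sulfate and grown 7 days at 30°C on medium lacking adenine and uracil. The nucleation score is the DiMSum log enrichment of output over input reads, centred on the mode score of non-aggregating sequences. Sequences with under 100 input reads were excluded.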
With LCHVVSDMVLSIQHYHACLS the amyloid nucleation score was “inactive”.
In the case of GKPWGTGSLVLWYLYDEDCA, the amyloid nucleation score is reported as “inactive”.
With TAAYSLFIEVSCSQSTN the amyloid nucleation score was “inactive”.
In the case of EYSRMSSNQMVYSLVIFHNL, the amyloid nucleation score is reported as 0.509 ± 0.33.
For TFVKSVLSYVLGLELSLRGL, the amyloid nucleation score was “inactive”.
For EPQYDSYTGGVSAFVVLKEH, the amyloid nucleation score was “inactive”.
In the case of GWSLGARSNYGLSTGQRGCA, the amyloid nucleation score is reported as “inactive”.
With VFGKCLCTNCLEEVCIRFDL the amyloid nucleation score was “inactive”.
With RVSNGPIIYRRMHAAGDNLT the amyloid nucleation score was “inactive”.
In the case of SFSFSKSNVSERDLCSTCTV, the amyloid nucleation score is reported as “inactive”.
With INDLQTSPR the amyloid nucleation score was “inactive”.
In the case of CSCYENFELVPGFRRCRGMV, the amyloid nucleation score is reported as “inactive”.
IYKSTFFKVRTSGPGRHFGF gave an amyloid nucleation score of 0.186 ± 0.37.
With KLNSGEVFWQDTL the amyloid nucleation score was “inactive”.
CSNLIIMKNSIERQTAFRYN gave an amyloid nucleation score of 0.284 ± 0.14.
With LAVVNYQSFTNVEWVGNRIK the amyloid nucleation score was “inactive”.
With AARISRGVPWYGQEMKGRVR the amyloid nucleation score was “inactive”.
In the case of SAGAQSHSIYRAAVLSACLY, the amyloid nucleation score is reported as “inactive”.
For IMYLRETGTK, the amyloid nucleation score was “inactive”.
In the case of WNLYCAFSPDYRLNIWTLQI, the amyloid nucleation score is reported as “inactive”.
With QLIELGRVVTCV the amyloid nucleation score was “inactive”.
For DGWFNQCASESSFKVHHGS, the amyloid nucleation score was “inactive”.
In the case of YMEAC, the amyloid nucleation score is reported as “inactive”.
For ADLPVIHNNKRLVVVWHWLN, the amyloid nucleation score was “inactive”.
For SDGIYV, the amyloid nucleation score was “inactive”.
Substance IFFVRSDAFKFSILSVNASL has an amyloid nucleation score of -0.37 ± 0.56.
For LGIAPDHMSCSGVNRKCGYS, the amyloid nucleation score was “inactive”.
With TWSACPTLCLD the amyloid nucleation score was -0.392 ± 0.98.
In the case of HKCMCVY, the amyloid nucleation score is reported as “inactive”.
In the case of PRDNILTPQHV, the amyloid nucleation score is reported as “inactive”.
With GQWLYGWTRYVGPTI the amyloid nucleation score was “inactive”.
For FCGNLEATYRSRFRSNAHSA, the amyloid nucleation score was 0.698 ± 0.3.
LRASFWECLCCCVVR gave an amyloid nucleation score of 2.33 ± 0.073.
Substance AFYDNWKGNG has an amyloid nucleation score of 0.141 ± 0.35.
In the case of ERALIDSHPGTWLRRMTVNR, the amyloid nucleation score is reported as “inactive”.
For WRPFWYIGFHVNVTRG, the amyloid nucleation score was “inactive”.
For PVTVFWVTMTSWYVNIRG, the amyloid nucleation score was “inactive”.
For THEHMRHC, the amyloid nucleation score was “inactive”.
MFQPFYFHNFYISCKLA gave an amyloid nucleation score of 1.95 ± 0.092.
In the case of PMYTMRVWLMMSS, the amyloid nucleation score is reported as “inactive”.
Substance GNKQVVNWDGYF has an amyloid nucleation score of -0.431 ± 0.96.
With VTVQLCSNLIMGTWRTRNVL the amyloid nucleation score was “inactive”.
For MGKKSAHLSYRICVQCGKDG, the amyloid nucleation score was “inactive”.
With IHRNEYMMRKKDRILQNLAV the amyloid nucleation score was “inactive”.
In the case of SVYECNLIRDFIDRQGPNLA, the amyloid nucleation score is reported as 2.25 ± 0.058.
In the case of STIQSHCYKVVGV, the amyloid nucleation score is reported as “inactive”.
For VCSSINPFQNMTSFKVWIKS, the amyloid nucleation score was “inactive”.
In the case of YTVMFLGANYSYVVKSMSRS, the amyloid nucleation score is reported as “inactive”.
In the case of APAEIFDLLKSMNGTLCRMG, the amyloid nucleation score is reported as “inactive”.
In the case of IKSGFW, the amyloid nucleation score is reported as “inactive”.
For GTWNVKAGGPYFKVVT, the amyloid nucleation score was “inactive”.
For SYSQKKRHVSKSTGSRAWQA, the amyloid nucleation score was “inactive”.
For IDLRC, the amyloid nucleation score was “inactive”.
In the case of WCFHVKTSSLVLSRQWEPLS, the amyloid nucleation score is reported as “inactive”.
For VYHLQLLVGVRGLNPRCAQE, the amyloid nucleation score was “inactive”.
Substance YSLSINCMFRYRSFSDFIDN has an amyloid nucleation score of 0.992 ± 0.2.
For ASNYYKCCCSNWLCCLMSDR, the amyloid nucleation score was 2.91 ± 0.066.
TLGSAEDMYRQPRIANTDSC showed an amyloid nucleation score of -0.123 ± 0.59.
For WDFRV, the amyloid nucleation score was “inactive”.
With KFVFSFGSLYSVLTLERVEG the amyloid nucleation score was 0.388 ± 0.2.
For FNLQL, the amyloid nucleation score was 0.325 ± 0.57.
With GVCSLCKTLR the amyloid nucleation score was “inactive”.
For LDVVRRMLKTH, the amyloid nucleation score was “inactive”.
With FLINPFVWFNNYSFTAF the amyloid nucleation score was 0.929 ± 0.14.
For FVAHCWQSIY, the amyloid nucleation score was “inactive”.
With IYPFSDMLSFWGMGKCELLR the amyloid nucleation score was -0.361 ± 1.1.
For MFMMTKRNCNSTCCHYKFRV, the amyloid nucleation score was 0.656 ± 0.16.
For PAPMSVFRHVNFFVKFSPSS, the amyloid nucleation score was “inactive”.
In the case of SFLAYYMFYM, the amyloid nucleation score is reported as “inactive”.
In the case of MMFARKFAIKSTKRIMVGRT, the amyloid nucleation score is reported as “inactive”.
For RSQRKTFHWKFWRPSCSDQW, the amyloid nucleation score was 0.868 ± 0.12.
For WSWRDLEGQNSGKEAVILEL, the amyloid nucleation score was “inactive”.
For MEWFFVSYPLITGWMGS, the amyloid nucleation score was “inactive”.
Work on FSRLFCNSALCIMRFVNTSS yielded an amyloid nucleation score of 1.52 ± 0.088.
With SSGPLALVL the amyloid nucleation score was “inactive”.
With SVGCPVVRTQFILSPGQTSN the amyloid nucleation score was “inactive”.
In the case of ILYSGVIILYSFYIRRPMVL, the amyloid nucleation score is reported as “inactive”.
In the case of CRVAMILSCFTMVFCSQAAT, the amyloid nucleation score is reported as 1.5 ± 0.081.
In the case of SNFLGNQRMLRSAQIPRMRL, the amyloid nucleation score is reported as “inactive”.
YMDPWYVIDHCLWRQMFLSE gave an amyloid nucleation score of -0.557 ± 1.
For RSAVISTLRYSW, the amyloid nucleation score was -0.289 ± 0.41.
In the case of MNLVSSIVNYCFGRWGWLVG, the amyloid nucleation score is reported as “inactive”.
For HMPVSIFSAFVYMTQNHAIG, the amyloid nucleation score was 1.75 ± 0.062.
With QHKQVNGFTITYTLGHCYTY the amyloid nucleation score was “inactive”.
In the case of KVCNSF, the amyloid nucleation score is reported as “inactive”.
In the case of QCSDVLYY, the amyloid nucleation score is reported as “inactive”.
In the case of NWFSSQS, the amyloid nucleation score is reported as “inactive”.
Work on SNYFTFYLFNVRGIWGFADC yielded an amyloid nucleation score of 2.56 ± 0.07.
With NCCPIIPVDYNYNRLPIIVG the amyloid nucleation score was “inactive”.
For HLSLRNNNAPDYPSGNSFWE, the amyloid nucleation score was “inactive”.
In the case of TNNEDKFWRVVLNLGTVTSD, the amyloid nucleation score is reported as “inactive”.
In the case of SPWYLNVAIGTAKGCLSFID, the amyloid nucleation score is reported as “inactive”.
With VLVNGSGRNWEYYISRRFFF the amyloid nucleation score was “inactive”.
For CKTLFFCMWNCFCFTVYSWF, the amyloid nucleation score was “inactive”.
With SSDCMDDRCCDNCDSSRLLW the amyloid nucleation score was “inactive”.
In the case of LSAADSMCGKRCLRGTP, the amyloid nucleation score is reported as “inactive”.
For SRWIGYSFSGGSGGFVGRKA, the amyloid nucleation score was “inactive”.
For IAIKNSSRRYMNYERLFTKL, the amyloid nucleation score was “inactive”.
For ALHWKGLQT, the amyloid nucleation score was “inactive”.
For EFDDRACYDDTV, the amyloid nucleation score was “inactive”.
With IVERKVRPAHFYYSLVYEQS the amyloid nucleation score was “inactive”.
With DTYRV the amyloid nucleation score was “inactive”.
In the case of GPPAEASHKLWPASPRDRCP, the amyloid nucleation score is reported as “inactive”.
In the case of RSLCQQYQRFSSLRKVIGLS, the amyloid nucleation score is reported as “inactive”.
In the case of MEVLLVIYSDCERARSDTNI, the amyloid nucleation score is reported as “inactive”.
In the case of LYVTILNVLLLHMTHSLFSG, the amyloid nucleation score is reported as “inactive”.
With PHSYA the amyloid nucleation score was “inactive”.
In the case of SFSKLVFR, the amyloid nucleation score is reported as “inactive”.
For ECVCCRYYLVCGGPILRQDL, the amyloid nucleation score was “inactive”.
For MRLNGFLRRKGRVSNMWHTG, the amyloid nucleation score was “inactive”.
For FLGTHEGTDRLLWCVIEEKG, the amyloid nucleation score was “inactive”.
With LSDLEDWRNYRWSKEDLKVE the amyloid nucleation score was “inactive”.
In the case of FMKSRINIRIALWCF, the amyloid nucleation score is reported as “inactive”.
For MSVTMMAKWTTLILGIGTGM, the amyloid nucleation score was “inactive”.
With YLTMYDSNDIFTIVATVMST the amyloid nucleation score was “inactive”.
For KGGSVGHQQLYMCWQYNPVF, the amyloid nucleation score was “inactive”.
In the case of TVYSRHIDRGYWIADGCSRV, the amyloid nucleation score is reported as “inactive”.
For RRRERGASNVDELWF, the amyloid nucleation score was “inactive”.
For FMTLMVTLYLRLYSRSYGPQ, the amyloid nucleation score was “inactive”.
For VNGFRVHWERPEHCYSVLML, the amyloid nucleation score was “inactive”.
For AGKHFAHSGLFLVCNYTSRT, the amyloid nucleation score was “inactive”.
Work on SVSADGGFCIHGQTRPMAGL yielded an amyloid nucleation score of 1.21 ± 0.095.
In the case of CEQDTCFIHISRYTTVNNTM, the amyloid nucleation score is reported as “inactive”.
With DVCTLSELSVFPSLSISQ the amyloid nucleation score was “inactive”.
In the case of LIWQGCV, the amyloid nucleation score is reported as “inactive”.
In the case of VMCMCCISVHSTLMFLDITN, the amyloid nucleation score is reported as 2.85 ± 0.063.
For DDCFIARAFLSLGLPELYLG, the amyloid nucleation score was “inactive”.
With LSLLVTLG the amyloid nucleation score was “inactive”.
For IWPNRHGLKNVLRDQREATL, the amyloid nucleation score was “inactive”.
SLAKFNMNYGTYGLEGFSVW showed an amyloid nucleation score of -0.209 ± 0.81.
With HGMGYRAIFIFNLISQPRLE the amyloid nucleation score was 2.52 ± 0.078.
NIDNMSMVRILFNT showed an amyloid nucleation score of 1.44 ± 0.11.
With VCIVVGARGGGYVLRTPLRG the amyloid nucleation score was “inactive”.
For RLLVGFIWSWLGISYFTRFL, the amyloid nucleation score was “inactive”.
For VINKRRWTSNGNCILEVRHG, the amyloid nucleation score was “inactive”.
For TNDTLFFVTSLVADPVERIS, the amyloid nucleation score was “inactive”.
QFVASELYVIGFTAVWLGCI showed an amyloid nucleation score of 0.902 ± 0.2.
In the case of VSTRFFSACTLHFQSSMPYC, the amyloid nucleation score is reported as “inactive”.
In the case of GCFLNNMLIGF, the amyloid nucleation score is reported as “inactive”.
In the case of QFLKGDCRYLDPGMDLDRG, the amyloid nucleation score is reported as “inactive”.
For IYSMYQCLFVEHFS, the amyloid nucleation score was “inactive”.
In the case of PETWDTRCGV, the amyloid nucleation score is reported as 0.03 ± 0.88.
With LDVPWRTFLNGFHSFLT the amyloid nucleation score was “inactive”.
In the case of MMFDYLLLRGHNAQIQLWWY, the amyloid nucleation score is reported as “inactive”.
For SRVLILM, the amyloid nucleation score was “inactive”.
For GVFAIGANLQANVGNDRAYT, the amyloid nucleation score was “inactive”.
For TPRKTLSDVLFFRLILS, the amyloid nucleation score was “inactive”.
With VVIVLLKFR the amyloid nucleation score was “inactive”.
In the case of PRASYMGRSKL, the amyloid nucleation score is reported as “inactive”.
In the case of LIRQRLDRLVQHFVDFRVFF, the amyloid nucleation score is reported as “inactive”.
IISCYTNKMIVVTWCYPLRR showed an amyloid nucleation score of 0.116 ± 0.19.
Work on RPGTCNLLVDGHLSWFQSAT yielded an amyloid nucleation score of -0.288 ± 1.
CGGGALLDICLPFICPVNGL gave an amyloid nucleation score of 0.843 ± 0.19.
With LIMLFHSWMSTRWYGVVSNS the amyloid nucleation score was “inactive”.
With VQVMETEMRSVVA the amyloid nucleation score was “inactive”.
With SYFVWVNV the amyloid nucleation score was “inactive”.
With QDAMSTEVEGTF the amyloid nucleation score was “inactive”.
With SEYYCYICLMVSIGFSANLL the amyloid nucleation score was “inactive”.
